Measured values as given in FireProtDB (doi:10.1016/j.jmb.2009.04.075).
Where “and” joins values, the source holds several entries; their conditions need not be identical. Equal values may be shown once.

Details: Saccharomyces cerevisiae (strain ATCC 204508 / S288c); pH 7; 25 °C; GdnHCl; CD; Tris 20 mM; NaCl 40 mM; reversible: Yes

Sequence of Cytochrome c isoform 1 wild type, P00044 (P00044 whole entry, canonical isoform): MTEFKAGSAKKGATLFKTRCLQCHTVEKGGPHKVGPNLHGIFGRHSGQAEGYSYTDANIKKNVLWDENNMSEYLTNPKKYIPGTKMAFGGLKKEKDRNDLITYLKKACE

Substance: Cytochrome c isoform 1 wild type, P00044
- denaturant midpoint (higher = more stable): 0.49 M and 0.45 M
